This is an account of results in article PMC9482650, “Quantitative fragmentomics allow affinity mapping of interactomes” (Nature Communications, 2022).

By pKd is commonly meant −log10 of the Kd, conventionally taken in molar units.

Among the targets are DLG1_2, Q12959; NHERF4_4, Q86UT5; LIMK2, P53671; MAGI2_3, Q86UL8; MAGI2_2, Q86UL8; HTRA1, Q92743; PDZRN4_1, Q6ZMN7.
Experiment in all cases: holdup assay
Common to all, as to set-up: key: below the threshold = too weak to quantify, mostly under pKd 3.1 to 4
Holding throughout (settings): plain residues with an end cap or a label only (N-terminal biotin on a linker: ado-ado)

In another assay the target is T1, DFNB31_3, Q9P202.
T1 sequence (Q9P202 811-907, limits assumed, looked up): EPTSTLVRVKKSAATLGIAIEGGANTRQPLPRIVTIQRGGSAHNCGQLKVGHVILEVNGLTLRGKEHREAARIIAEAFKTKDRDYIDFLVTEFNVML

Another assay deals with T2, FRMPD1, Q5SYB0.
T2 sequence (Q5SYB0 52-145, limits assumed, looked up): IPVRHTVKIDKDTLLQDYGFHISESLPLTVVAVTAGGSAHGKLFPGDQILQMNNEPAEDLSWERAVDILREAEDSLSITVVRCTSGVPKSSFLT

A further assay has as its target T3, TJP3_3, O95049.
T3 sequence (O95049 375-456, limits assumed, looked up): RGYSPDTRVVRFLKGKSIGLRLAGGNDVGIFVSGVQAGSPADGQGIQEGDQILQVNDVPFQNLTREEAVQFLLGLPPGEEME

For another assay, the target named is T4, CARD11, Q9BXL7.
T4 sequence (Q9BXL7 662-765, limits assumed, looked up): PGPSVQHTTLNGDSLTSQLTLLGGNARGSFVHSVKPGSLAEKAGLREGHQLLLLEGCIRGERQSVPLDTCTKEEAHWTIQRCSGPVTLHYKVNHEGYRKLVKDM

The target of the next assay is T5, RAPGEF6, Q8TEU7.
T5 sequence (Q8TEU7 525-625, limits assumed, looked up): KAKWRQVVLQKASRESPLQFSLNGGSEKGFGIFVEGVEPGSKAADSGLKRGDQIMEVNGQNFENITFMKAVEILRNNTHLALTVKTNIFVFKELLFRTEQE

A further assay concerns the target T6, SHANK1, Q9Y566.
T6 sequence (Q9Y566 658-767, limits assumed, looked up): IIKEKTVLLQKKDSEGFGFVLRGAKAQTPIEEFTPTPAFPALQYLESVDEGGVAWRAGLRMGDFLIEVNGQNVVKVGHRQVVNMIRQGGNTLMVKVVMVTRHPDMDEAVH

For another assay, the target named is T7, GRIP1_5, Q9Y3R0.
T7 sequence (Q9Y3R0 568-668, limits assumed, looked up): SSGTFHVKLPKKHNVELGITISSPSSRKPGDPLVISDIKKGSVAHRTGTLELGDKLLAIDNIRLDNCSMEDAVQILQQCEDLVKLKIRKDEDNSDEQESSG

In the next assay the target is T8, LIN7C, Q9NUP9.
T8 sequence (Q9NUP9 88-185, limits assumed, looked up): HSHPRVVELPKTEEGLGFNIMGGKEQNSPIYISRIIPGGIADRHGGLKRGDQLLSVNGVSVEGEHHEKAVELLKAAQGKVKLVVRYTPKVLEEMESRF

In the next assay the target is T9, DFNB31_1, Q9P202.
T9 sequence (Q9P202 135-233, limits assumed, looked up): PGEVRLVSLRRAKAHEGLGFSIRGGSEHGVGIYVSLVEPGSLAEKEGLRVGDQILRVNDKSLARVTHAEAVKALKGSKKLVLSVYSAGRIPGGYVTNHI

In another assay the target is T10, HTRA4, P83105.
T10 sequence (P83105 378-476, limits assumed, looked up): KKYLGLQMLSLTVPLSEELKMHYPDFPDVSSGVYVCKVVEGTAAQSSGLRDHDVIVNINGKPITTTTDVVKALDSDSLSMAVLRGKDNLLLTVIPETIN

The target of a further assay is T11, DFNB31_2, Q9P202.
T11 sequence (Q9P202 274-371, limits assumed, looked up): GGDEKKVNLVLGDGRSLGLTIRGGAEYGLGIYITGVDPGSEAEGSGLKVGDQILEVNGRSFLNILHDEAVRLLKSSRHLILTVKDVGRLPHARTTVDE

The next assay has as its target T12, TX1BP3, O14907.
T12 sequence (O14907 10-122, limits assumed, looked up): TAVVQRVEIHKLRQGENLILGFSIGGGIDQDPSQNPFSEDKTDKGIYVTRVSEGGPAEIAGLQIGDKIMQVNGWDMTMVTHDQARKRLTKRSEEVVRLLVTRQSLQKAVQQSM

Another assay concerns the target T13, DVL3, Q92997.
T13 sequence (Q92997 244-331, limits assumed, looked up): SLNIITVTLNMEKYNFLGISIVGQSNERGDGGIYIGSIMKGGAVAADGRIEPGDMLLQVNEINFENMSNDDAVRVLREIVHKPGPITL

A further assay concerns the target T14, TIAM2, Q8IVF5.
T14 sequence (Q8IVF5 885-986, limits assumed, looked up): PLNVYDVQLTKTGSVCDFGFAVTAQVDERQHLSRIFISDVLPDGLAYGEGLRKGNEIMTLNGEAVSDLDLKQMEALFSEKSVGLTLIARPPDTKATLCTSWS

A further assay concerns the target T15, APBA1_1, Q02410.
T15 sequence (Q02410 651-752, limits assumed, looked up): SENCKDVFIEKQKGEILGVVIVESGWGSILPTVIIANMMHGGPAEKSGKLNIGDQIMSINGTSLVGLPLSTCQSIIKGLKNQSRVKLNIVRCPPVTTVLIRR

Chain of MAGI2_2, Q86UL8 (Q86UL8 410-522): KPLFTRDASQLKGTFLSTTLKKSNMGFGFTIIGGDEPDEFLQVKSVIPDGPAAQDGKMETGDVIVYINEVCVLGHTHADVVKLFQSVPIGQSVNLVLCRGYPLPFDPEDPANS
Chain of MAGI2_3, Q86UL8 (Q86UL8 600-682): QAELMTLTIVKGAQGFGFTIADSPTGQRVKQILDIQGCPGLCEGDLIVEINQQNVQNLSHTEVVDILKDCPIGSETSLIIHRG
Chain of HTRA1, Q92743 (Q92743 360-477): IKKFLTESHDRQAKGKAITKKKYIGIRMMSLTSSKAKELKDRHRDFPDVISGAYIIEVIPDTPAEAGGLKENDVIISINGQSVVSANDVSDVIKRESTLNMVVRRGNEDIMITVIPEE
Chain of PDZRN4_1, Q6ZMN7 (Q6ZMN7 213-318): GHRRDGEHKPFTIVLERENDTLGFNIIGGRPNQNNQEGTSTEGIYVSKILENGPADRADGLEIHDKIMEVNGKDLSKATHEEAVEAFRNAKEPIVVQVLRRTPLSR
Chain of NHERF4_4, Q86UT5 (Q86UT5 464-550): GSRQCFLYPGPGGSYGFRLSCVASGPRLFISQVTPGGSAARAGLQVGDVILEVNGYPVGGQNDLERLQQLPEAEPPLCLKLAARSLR
Chain of LIMK2, P53671 (P53671 143-248): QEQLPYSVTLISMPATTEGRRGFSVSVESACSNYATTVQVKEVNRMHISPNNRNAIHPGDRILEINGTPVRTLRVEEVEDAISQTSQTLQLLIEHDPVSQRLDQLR
Chain of DLG1_2, Q12959 (Q12959 314-412): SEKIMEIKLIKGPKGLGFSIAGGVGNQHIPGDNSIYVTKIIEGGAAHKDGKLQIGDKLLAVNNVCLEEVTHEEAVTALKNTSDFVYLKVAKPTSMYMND

B1: NECTIN1, Q15223 (peptide)
chain: SFISKKEWYV
Take B1: the pKd entry is “below the threshold” in the assay with DFNB31_3, Q9P202; “below the threshold” with FRMPD1, Q5SYB0; 3.77 in the assay with DLG1_2, Q12959; 4.1 with TJP3_3, O95049; “below the threshold” with CARD11, Q9BXL7; “below the threshold” in the assay with NHERF4_4, Q86UT5. The negative logarithm of the Kd (pKd) result was “below the threshold” with LIMK2, P53671; “below the threshold” in the assay with MAGI2_3, Q86UL8; 4.96 with MAGI2_2, Q86UL8; “below the threshold” in the assay with RAPGEF6, Q8TEU7; “below the threshold” with SHANK1, Q9Y566; “below the threshold” with GRIP1_5, Q9Y3R0. Besides, the pKd entry with LIN7C, Q9NUP9 is “below the threshold”; with DFNB31_1, Q9P202, “below the threshold”; in the assay with HTRA1, Q92743, 5.24; with PDZRN4_1, Q6ZMN7, “below the threshold”; in the assay with HTRA4, P83105 it was “below the threshold”; with DFNB31_2, Q9P202, “below the threshold”. Besides, the pKd entry with TX1BP3, O14907 is “below the threshold”; with DVL3, Q92997, 4.51; with TIAM2, Q8IVF5, 5.09; with APBA1_1, Q02410 it was “below the threshold”.

B2: REELD1, A0A1B0GV85 (peptide)
chain: PSVGSKKTVL
As for B2, the pKd result was “below the threshold” with DFNB31_3, Q9P202; “below the threshold” with FRMPD1, Q5SYB0; 3.79 in the assay with DLG1_2, Q12959; “below the threshold” with TJP3_3, O95049; “below the threshold” with CARD11, Q9BXL7; “below the threshold” in the assay with NHERF4_4, Q86UT5. In addition, the pKd entry in the assay with LIMK2, P53671 was “below the threshold”; in the assay with MAGI2_3, Q86UL8, “below the threshold”; with MAGI2_2, Q86UL8, “below the threshold”; in the assay with RAPGEF6, Q8TEU7, “below the threshold”; with SHANK1, Q9Y566, 3.93; in the assay with GRIP1_5, Q9Y3R0, “below the threshold”. In addition, the pKd result with LIN7C, Q9NUP9 was “below the threshold”; with DFNB31_1, Q9P202 it was “below the threshold”; with HTRA1, Q92743, 3.55; with PDZRN4_1, Q6ZMN7 it was “below the threshold”; with HTRA4, P83105 it was 3.91; with DFNB31_2, Q9P202, “below the threshold”. Besides, the pKd entry in the assay with TX1BP3, O14907 is “below the threshold”; in the assay with DVL3, Q92997, “below the threshold”; with TIAM2, Q8IVF5 it was “below the threshold”; in the assay with APBA1_1, Q02410 it was “below the threshold”.

B3: SBF1, O95248 (peptide)
chain: DRIQSCLSDA
With B3, the pKd is 3.74 in the assay with DFNB31_3, Q9P202; “below the threshold” with FRMPD1, Q5SYB0; “below the threshold” with DLG1_2, Q12959; “below the threshold” with TJP3_3, O95049; “below the threshold” in the assay with CARD11, Q9BXL7; “below the threshold” with NHERF4_4, Q86UT5. In addition, the pKd entry with LIMK2, P53671 was “below the threshold”; with MAGI2_3, Q86UL8, “below the threshold”; with MAGI2_2, Q86UL8 it was “below the threshold”; in the assay with RAPGEF6, Q8TEU7, “below the threshold”; with SHANK1, Q9Y566, “below the threshold”; with GRIP1_5, Q9Y3R0, “below the threshold”. For the same molecule, the pKd with LIN7C, Q9NUP9 is 3.84; with DFNB31_1, Q9P202, “below the threshold”; with HTRA1, Q92743, “below the threshold”; with PDZRN4_1, Q6ZMN7, “below the threshold”; with HTRA4, P83105, “below the threshold”; in the assay with DFNB31_2, Q9P202 it was “below the threshold”. The pKd with TX1BP3, O14907 was 4.04; with DVL3, Q92997 it was “below the threshold”; in the assay with TIAM2, Q8IVF5, 4.03; with APBA1_1, Q02410 it was “below the threshold”.

B4: SLCO1A2, P46721 (peptide)
chain: LKDDELKTKL
As to B4, the pKd result was “below the threshold” in the assay with DFNB31_3, Q9P202; “below the threshold” with FRMPD1, Q5SYB0; “below the threshold” in the assay with DLG1_2, Q12959; “below the threshold” with TJP3_3, O95049; “below the threshold” with CARD11, Q9BXL7; “below the threshold” with NHERF4_4, Q86UT5. The pKd result with LIMK2, P53671 was “below the threshold”; with MAGI2_3, Q86UL8, “below the threshold”; with MAGI2_2, Q86UL8, “below the threshold”; in the assay with RAPGEF6, Q8TEU7 it was “below the threshold”; with SHANK1, Q9Y566 it was 5.62; with GRIP1_5, Q9Y3R0, “below the threshold”. Also, the pKd entry with LIN7C, Q9NUP9 is “below the threshold”; with DFNB31_1, Q9P202, “below the threshold”; with HTRA1, Q92743, “below the threshold”; with PDZRN4_1, Q6ZMN7, “below the threshold”; with HTRA4, P83105, “below the threshold”; in the assay with DFNB31_2, Q9P202, “below the threshold”. For the same molecule, the pKd entry with TX1BP3, O14907 is recorded as “below the threshold”; with DVL3, Q92997 it was “below the threshold”; in the assay with TIAM2, Q8IVF5 it was “below the threshold”; with APBA1_1, Q02410, “below the threshold”.
